Earlier results, collected in publication PMC7232523.
pKd: −log10 of the molar value.

Columns and labels:
IL-4Ra (Homo sapiens) = IL-4Ra (Homo sapiens) (UniProt P24394)
[1] = target: IL-13Ra1/IL-4Ra (Homo sapiens) (UniProt P78552)
Chain of UniProt P78552 (P78552 22-343, chain 1 of 2): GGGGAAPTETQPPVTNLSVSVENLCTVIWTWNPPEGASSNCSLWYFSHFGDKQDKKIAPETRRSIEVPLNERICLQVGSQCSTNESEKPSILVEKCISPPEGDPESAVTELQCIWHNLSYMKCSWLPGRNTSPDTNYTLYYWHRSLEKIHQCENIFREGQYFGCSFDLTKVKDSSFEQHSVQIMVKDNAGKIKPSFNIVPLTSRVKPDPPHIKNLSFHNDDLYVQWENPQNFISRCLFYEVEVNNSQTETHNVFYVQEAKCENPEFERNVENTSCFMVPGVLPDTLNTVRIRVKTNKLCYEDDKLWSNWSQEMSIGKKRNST
Chain of UniProt P78552 (P24394 26-232, chain 2 of 2, further chain): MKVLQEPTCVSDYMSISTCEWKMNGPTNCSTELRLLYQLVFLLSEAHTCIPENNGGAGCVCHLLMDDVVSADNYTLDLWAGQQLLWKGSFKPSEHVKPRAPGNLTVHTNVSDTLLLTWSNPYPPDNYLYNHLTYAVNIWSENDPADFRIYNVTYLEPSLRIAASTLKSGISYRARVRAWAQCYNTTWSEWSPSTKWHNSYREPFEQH

Chain of UniProt P24394 (P24394 26-232): as the sequence (P24394 26-232, chain 2 of 2, further chain) above

Row | pKd (IL-4Ra (Homo sapiens)) | pKd [1] | Substance
1 | 10.00 |  | IL-4 (from UniProt P05112)
2 |  | 10.46 | IL-13 (from UniProt P35225)
